Substitutions are numbered along the chain they refer to. Numbers in names are those of the source. One block for each binder: values may come before it.
Experiments:
[1] = target: T1, human FXIa (activated human coagulation Factor XI) (human, UniProt P03951 19-387; P03951 388-625); assay: cell-based or functional assay
[2] = target: T2, human FXI antigen expressed in 293F cells (human, UniProt P03951 19-625, limits assumed); assay: ELISA, FXI antigen (293F) coated at 1 µg/mL, HRP goat-anti-human detection
T2 construct: also called FXI antigen (PMD-F11 plasmid cloned into PLVX-IRES-PURO, 293F)

[3] = target: T3, human FXI (human coagulation Factor XI) (human, UniProt P03951 19-625); assay: BLI (Octet Fortebio), antibody on AHC (anti-human-Fc) sensor, FXI in solution
T3 construct: Bought protein; Biotin-labeled form (HCXI-0150-B) was used in the hybridoma screen; also called FXI protein; FXI antigen
Description: Octet Fortebio® was used for the affinity determination of chimeric and humanized antibodies. […] The data obtained were analyzed by Octet data analysis software.

[4] = target: T1, human FXIa (activated human coagulation …); assay: cell-based or functional assay; remark: listed apart in the source
[5] = target: T1, human FXIa (activated human coagulation …); assay: ELISA, FXIa coated at 1 µg/mL, HRP goat-anti-human detection
[6] = target: T1, human FXIa (activated human coagulation …); assay: cell-based or functional assay; remark: listed apart in the source
[7] = target: T1, human FXIa (activated human coagulation …); assay: BLI (Octet ForteBio), ratio of KD against BAY-1213790
Description: (§1) The specific experimental steps were as follows: the streptavidin biosensors was first bound with the biotin-labeled antibody to be tested to reach a response signal value of 0.8 nm, then bound with FXIa protein (3.2, 1.6, 0.8, 0.4, 0.2, 0.1, 0.05, and 0 μg/mL) for 5 minutes, then dissociation was performed for 7 minutes, and the bivalent analysis model was used for all fitting analysis.

[8] = target: T1, human FXIa (activated human coagulation …); assay: BLI (Octet ForteBio), biotin-labeled antibody on streptavidin sensor, FXIa in solution, bivalent model
Description: as §1

[9] = target: T1, human FXIa (activated human coagulation …); assay: BLI (Octet ForteBio), ratio of KD against 14E11
Description: as §1

B1: humanized antibody 36G9.10-hz73 (antibody, human IgG1, kappa, N297A, V domains shown)
VH: EVQLVQSGAEVKKPGATVKISCKASGFNIKDTYIHWVQQAPGKGLEWMGRIDPANDNTIYAEKFQGRVTITADTSTNTAYMELSSLRSEDTAVYYCAQDYDGFAMDYWGQGTLVTVSS
VL: DIQMTQSPSSLSASVGDRVTITCKASQDINKYITWFQQKPGKAPKLLIHYTSTLQPGVPSRFSGSGSGRDYTLTISSLQPEDFATYYCLQYDYLLTFGGGTKVEIKR
IC50 value (ng/mL), inhibition of the catalytic effect of FXIa on fluorescent substrate I-1575 [1]: 26.2 ng/mL | EC50 [2]: 9.68 ng/mL | Kd [3]: 10.3 pM | koff [3]: 6.51e-05 s⁻¹ | kon [3]: 6.31e+06 M⁻¹ s⁻¹ | APTT in human plasma, fold prolongation [4]: 2.2 times | EC50 [5]: 2.49 ng/mL | APTT detection (EC50, nM), sample at 0 days [6]: 18.4 nM | APTT detection (EC50, nM), sample stored at 25° C. for 28 days [6]: 17.4 nM | APTT detection (EC50, nM), sample stored at 40° C. for 14 days [6]: 20.3 nM | APTT detection (EC50, nM), sample stored at 40° C. for 28 days [6]: 26.9 nM

B2: humanized antibody 36G9.10-hz43 (antibody, human IgG1, kappa, N297A, V domains shown)
VH: QVQLVQSGAEVKKPGASVKVSCKASGFNIKDTYIHWVRQAPGQGLEWIGRIDPANDNTNYAQKFQGRVTMTADTSINTAYMELSRLRSDDTAVYYCAQDYDGFAMDYWGQGTLVTVSS
VL: B1 VL
Kd [3]: 44.1 pM | koff [3]: 0.000255 s⁻¹ | kon [3]: 5.77e+06 M⁻¹ s⁻¹

B7: chimeric antibody 36G9.10-hz00 (antibody, human IgG1, kappa, N297A, V domains shown)
VH: EVQLQQSGAELVKPGASVKLSCTASGFNIKDTYIHWVKQRPEQGLEWIGRIDPANDNTKYDPKFQGKATITADTSSNTAYLQLSSLTSEDSAVYYCAQDYDGFAMDYWGQGTSVTVSS
VL: DIQMTQSPSSLSASLGGKVTITCKASQDINKYITWFQHKPGKGPRLLIHYTSTLQPGIPSRFSGSGSGRDYSFSISNLEPEDSATYYCLQYDYLLTFGGGTKLEIKR
notes: Murine variable regions grafted to human IgG1 (N297A) and human kappa constant regions
Kd [3]: 3.66 pM | koff [3]: 2.39e-05 s⁻¹ | kon [3]: 6.52e+06 M⁻¹ s⁻¹

B8: BAY-1213790 (antibody, V domains shown)
VH: EVQLLESGGGLVQPGGSLRLSCAASGFTFSQYGMDWVRQAPGKGLEWVSGIGPSGGSTVYADSVKGRFTISRDNSKNTLYLQMNSLRAEDTAVYYCTRGGPYYYYGMDVWGQGTTVTVSS
VL: DIQMTQSPSSLSASVGDRVTITCQASQDISNYLNWYQQKPGKAPKLLIYDASNLETGVPSRFSGSGSGTDFTFTISSLQPEDIATYYCQQADSFPVTFGGGTKVEIKR
IC50 value (ng/mL), inhibition of the catalytic effect of FXIa on fluorescent substrate I-1575 [1]: 70 ng/mL | Kd [3]: 374 pM | koff [3]: 0.00034 s⁻¹ | kon [3]: 910000 M⁻¹ s⁻¹ | Kd [8]: 1190 pM | koff [8]: 0.00109 s⁻¹ | kon [8]: 918000 M⁻¹ s⁻¹ | EC50 [5]: 6.16 ng/mL

Further lines, results first:

Kd [3]: 8.81 pM | koff [3]: 5.34e-05 s⁻¹ | kon [3]: 6.06e+06 M⁻¹ s⁻¹
B3: humanized antibody 36G9.10-hz93 (antibody, human IgG1, kappa, N297A, V domains shown)
VH: B1 VH with M48I, I59K, A61D, E62P
VL: B1 VL

Kd [3]: 15.2 pM | koff [3]: 7.69e-05 s⁻¹ | kon [3]: 5.07e+06 M⁻¹ s⁻¹
B4: humanized antibody 36G9.10-hz92 (antibody, human IgG1, kappa, N297A, V domains shown)
VH: B1 VH with M48I, I59K, A61D, E62P
VL: B1 VL with R69T, Y71F

Kd [3]: 7.98 pM | koff [3]: 5.16e-05 s⁻¹ | kon [3]: 6.47e+06 M⁻¹ s⁻¹
B5: humanized antibody 36G9.10-hz74 (antibody, human IgG1, kappa, N297A, V domains shown)
VH: B1 VH
VL: B1 VL with F36Y, H49Y, R69T, Y71F, L73F, F83I

fold stronger affinity than BAY-1213790 [7]: 2.5 times | Kd [8]: 480 pM | koff [8]: 0.00072 s⁻¹ | kon [8]: 1.5e+06 M⁻¹ s⁻¹ | fold stronger affinity than 14E11 [9]: 1.7 times
B6: murine antibody 36G9.10 (antibody, mouse IgG1, V domains shown)
VH: B7 VH
VL: DIQMTQSPSSLSASLGGKVTITCKASQDINKYITWFQHKPGKGPRLLIHYTSTLQPGIPSRFSGSGSGRDYSFSISNLEPEDSATYYCLQYDYLLTFGGGTKLEIK
notes: also called 36G9.10 murine antibody; murine anti-human FXI/FXIa monoclonal antibody

From patent US20220162338A1 (SICHUAN KELUN BIOTECH BIOPHARMACEUTICAL, published 2022)
